Experimental data reported in publication PMC5383425, “Differential CLE peptide perception by plant receptors implicated from structural and functional analyses of TDIF-TDR interactions” (PLoS ONE, 2017).
Square brackets hold non-standard residues; d marks the D form. Ends that are not written are not given here. Hyp = O=C(O)[C@@H]1C[C@@H](O)CN1

How the values were obtained:
Assay in all cases: ITC
[1] = biological target: T1, ecdTDR mutant with all five N-terminal anchoring site-binding residues replaced by alanine (Arabidopsis thaliana, UniProt Q9FII5 30-642)
T1 chain: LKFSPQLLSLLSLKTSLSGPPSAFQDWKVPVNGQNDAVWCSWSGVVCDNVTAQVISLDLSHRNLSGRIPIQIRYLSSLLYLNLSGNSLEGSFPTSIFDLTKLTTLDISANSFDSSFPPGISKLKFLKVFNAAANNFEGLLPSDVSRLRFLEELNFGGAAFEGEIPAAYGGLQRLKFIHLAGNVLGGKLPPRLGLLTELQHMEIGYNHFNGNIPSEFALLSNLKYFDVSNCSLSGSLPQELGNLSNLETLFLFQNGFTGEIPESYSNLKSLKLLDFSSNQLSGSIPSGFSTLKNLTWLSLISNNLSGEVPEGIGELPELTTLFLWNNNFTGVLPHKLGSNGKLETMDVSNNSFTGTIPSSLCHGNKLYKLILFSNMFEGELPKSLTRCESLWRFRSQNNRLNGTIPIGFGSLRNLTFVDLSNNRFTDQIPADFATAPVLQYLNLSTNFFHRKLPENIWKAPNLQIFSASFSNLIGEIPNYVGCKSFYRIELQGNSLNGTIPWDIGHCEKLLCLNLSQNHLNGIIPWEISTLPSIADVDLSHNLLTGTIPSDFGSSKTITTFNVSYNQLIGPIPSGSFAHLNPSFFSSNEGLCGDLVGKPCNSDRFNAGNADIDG

[2] = biological target: T2, ecdTDR F279 alanine mutant (Arabidopsis thaliana, UniProt Q9FII5 30-642, alanine substitution of F279)
T2 sequence: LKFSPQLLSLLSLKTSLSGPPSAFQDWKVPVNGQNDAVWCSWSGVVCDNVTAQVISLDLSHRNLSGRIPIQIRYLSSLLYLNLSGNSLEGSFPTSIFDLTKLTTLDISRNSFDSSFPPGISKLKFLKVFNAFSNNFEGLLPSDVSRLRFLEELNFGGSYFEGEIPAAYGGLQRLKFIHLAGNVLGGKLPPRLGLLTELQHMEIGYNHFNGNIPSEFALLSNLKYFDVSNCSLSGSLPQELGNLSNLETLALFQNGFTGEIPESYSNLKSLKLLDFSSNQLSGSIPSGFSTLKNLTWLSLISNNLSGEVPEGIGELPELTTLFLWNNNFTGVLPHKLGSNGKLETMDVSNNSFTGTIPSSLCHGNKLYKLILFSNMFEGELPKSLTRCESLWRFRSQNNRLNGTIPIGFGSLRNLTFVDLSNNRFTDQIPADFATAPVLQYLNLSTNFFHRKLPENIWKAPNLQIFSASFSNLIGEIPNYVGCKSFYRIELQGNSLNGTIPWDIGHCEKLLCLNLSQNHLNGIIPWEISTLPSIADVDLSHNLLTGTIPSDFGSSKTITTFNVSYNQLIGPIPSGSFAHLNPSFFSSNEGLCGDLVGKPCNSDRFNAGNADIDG

[3] = biological target: T3, ecdTDR F281 alanine mutant (Arabidopsis thaliana, UniProt Q9FII5 30-642, alanine substitution of F281)
T3 sequence: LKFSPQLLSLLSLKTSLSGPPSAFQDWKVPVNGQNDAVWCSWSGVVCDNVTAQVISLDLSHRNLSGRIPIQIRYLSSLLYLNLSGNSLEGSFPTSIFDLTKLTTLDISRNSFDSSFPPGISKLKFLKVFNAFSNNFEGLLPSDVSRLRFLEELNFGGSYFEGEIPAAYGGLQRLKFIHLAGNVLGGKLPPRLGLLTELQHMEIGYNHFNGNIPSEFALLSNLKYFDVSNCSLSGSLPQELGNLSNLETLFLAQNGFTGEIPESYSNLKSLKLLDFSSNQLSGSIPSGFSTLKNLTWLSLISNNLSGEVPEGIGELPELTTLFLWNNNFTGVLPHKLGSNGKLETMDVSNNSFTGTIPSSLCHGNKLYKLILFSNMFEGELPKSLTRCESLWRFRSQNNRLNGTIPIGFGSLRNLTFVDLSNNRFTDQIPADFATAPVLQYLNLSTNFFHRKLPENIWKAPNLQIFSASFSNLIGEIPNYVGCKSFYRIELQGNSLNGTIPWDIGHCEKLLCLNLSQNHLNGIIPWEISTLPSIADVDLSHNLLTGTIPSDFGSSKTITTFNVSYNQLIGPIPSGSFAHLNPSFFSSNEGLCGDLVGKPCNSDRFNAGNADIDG

[4] = biological target: T4, ecdTDR Y234 alanine mutant (Arabidopsis thaliana, UniProt Q9FII5 30-642, alanine substitution of Y234)
T4 sequence: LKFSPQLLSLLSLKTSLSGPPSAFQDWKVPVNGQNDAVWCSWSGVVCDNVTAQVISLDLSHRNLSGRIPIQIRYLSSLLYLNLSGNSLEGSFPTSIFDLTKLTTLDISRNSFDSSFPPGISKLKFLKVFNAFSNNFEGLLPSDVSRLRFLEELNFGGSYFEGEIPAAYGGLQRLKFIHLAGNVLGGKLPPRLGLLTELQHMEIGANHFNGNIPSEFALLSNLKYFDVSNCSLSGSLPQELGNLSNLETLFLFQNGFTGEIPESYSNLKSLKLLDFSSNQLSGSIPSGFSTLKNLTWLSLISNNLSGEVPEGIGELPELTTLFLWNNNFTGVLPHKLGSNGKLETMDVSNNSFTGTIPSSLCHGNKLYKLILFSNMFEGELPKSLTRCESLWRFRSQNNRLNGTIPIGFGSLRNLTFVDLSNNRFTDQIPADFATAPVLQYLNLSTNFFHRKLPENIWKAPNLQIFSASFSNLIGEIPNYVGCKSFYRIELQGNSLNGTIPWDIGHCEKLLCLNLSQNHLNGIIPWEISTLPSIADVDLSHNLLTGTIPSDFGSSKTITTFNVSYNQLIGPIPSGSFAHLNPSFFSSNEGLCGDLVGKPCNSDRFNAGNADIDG

B1: Tracheary Element Differentiation Inhibitory Factor (TDIF) peptide (peptide)
peptide: HEV[Hyp]SG[Hyp]NPISN
notes: TDIF, the 12-residue CLE peptide processed from CLE41 and CLE44 of A. thaliana; printed as HEV(Hyp)SG(Hyp)NPISN; numbers count on: the 12-residue peptide; CLE44 encodes the same peptide; also called wild type TDIF; wtTDIF; source: synthetic peptide (peptide 2.0)
For B1, which Kd [1] is on record?
The Kd was 3240 nM.

And the Kd [2]?
The Kd was 307 nM.

What about the Kd [3] of the same binder?
Its Kd is 787 nM.

And the Kd [4]?
Its Kd is 1650 nM.
